The assay addresses human TIGIT-Fc antigen (human) (UniProt Q495A1). Nature of the assay: ELISA on plate-coated human TIGIT-Fc (3 ug/ml), scFv from 80 nM in 1/3 steps, anti-His-HRP, OD450; value is C of the printed 4-P fit; the sheet prints no unit, nM from paragraph 123. In general terms: In an ELISA, binding on a coated surface is turned into a signal by an enzyme label.

human TIGIT-Fc antigen (human), sequence (Q495A1 22-141 T103A limits assumed): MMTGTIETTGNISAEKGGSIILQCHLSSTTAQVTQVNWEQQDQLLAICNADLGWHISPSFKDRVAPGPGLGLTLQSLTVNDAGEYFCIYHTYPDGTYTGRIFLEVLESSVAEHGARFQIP

B1: 1F10 (scFv-type anti-TIGIT antibody) (scFv, part only; not given: linker, domain order, His tag, V domains shown, not shown: another chain or arm of the molecule; small tags and cut ends)
VH: EVQLVESGGGLVKPGGSLRISCAASGFTFSNYNMIWVRQAPGKGLEWVSSISSSASYIYYADSVKGRFTISRDNAKNSLYLQMNSLRAEDTAVYYCARDEGSRDSWNNGPYYYSGMDVWGQGTTVTVSS
VL: AIQMTQSPSSLSASVGDRVTITCRASQSISRYLNWYQHKPGKAPKLLIYGASSLQSGVPSRFRGSGSGTDFTLTISSLQPEDFATYYCQQSYTTPGAFTFGGGTKVEIK
Turning to B1, the EC50 (in general, the concentration needed to bring the measured effect to its halfway point) came out at 0.526 nM.

(Values after patent publication US20220162310A1.)
